Like-named read-outs stand apart in the source and are kept apart here.
What was measured:
[1] = biological target: 92TH023 gp120 (HIV-1)
[2] = biological target: MN gp120 (HIV-1)
[3] = biological target: 1C.FD6-ZM109; assay: SPR
[4] = biological target: J08 C.ZM109.V1V2 (HIV-1); assay: SPR
[5] = biological target: 92TH023 gp120 (HIV-1); remark: listed apart in the source
[6] = biological target: MN gp120 (HIV-1); remark: listed apart in the source
[7] = biological target: T1, AE.A244 gD+ gp120 (HIV-1); assay: ELISA
T1 construct: domain: gp120; also called AE.A244 gp120gD+

[8] = biological target: T2, AE.A244 V1/V2 Tags N156QN160Q (HIV-1); assay: ELISA
T2 chain: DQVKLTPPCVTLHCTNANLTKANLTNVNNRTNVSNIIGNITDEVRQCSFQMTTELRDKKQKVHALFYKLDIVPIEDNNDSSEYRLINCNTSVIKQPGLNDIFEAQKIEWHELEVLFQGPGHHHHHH

[9] = biological target: A.Q23 V1V2 tags (HIV-1); assay: ELISA
[10] = biological target: T1, AE.A244 gD+ gp120; assay: ELISA; remark: listed apart in the source
[11] = biological target: T3, D.9009SA V1V2 Tags; assay: ELISA, OD405
T3 Env construct: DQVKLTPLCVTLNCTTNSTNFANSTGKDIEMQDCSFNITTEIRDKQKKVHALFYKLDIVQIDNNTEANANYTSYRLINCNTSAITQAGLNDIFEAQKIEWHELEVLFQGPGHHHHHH

[12] = biological target: B. 681-7 gp140C; assay: ELISA, OD405
[13] = biological target: T4, J08 B.HXB2/BALV1V2 (HIV-1); assay: ELISA
T4 construct: also called J08 B.HXB/BAL V1V2
T4 chain: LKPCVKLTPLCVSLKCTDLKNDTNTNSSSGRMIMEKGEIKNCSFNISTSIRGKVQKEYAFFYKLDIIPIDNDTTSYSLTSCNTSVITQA

[14] = biological target: J08 A.92RW020V1V2 (HIV-1); assay: ELISA
[15] = biological target: J08 C.ZM109.V1V2 (HIV-1); assay: ELISA
[16] = biological target: T5, B.63521_V1V2 Tags; assay: ELISA, OD405 at 10 ug/ml mAb
T5 Env construct: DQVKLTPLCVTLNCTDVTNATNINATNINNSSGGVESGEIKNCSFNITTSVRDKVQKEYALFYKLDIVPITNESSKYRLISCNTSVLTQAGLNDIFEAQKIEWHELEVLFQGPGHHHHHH

[17] = biological target: T6, B.HXB/BAL gp140CFI (HIV-1, UniProt P04578 33-680); assay: ELISA, OD405 at 10 ug/ml mAb
T6 construct: also called B.HxB/Ba gp140 CFI

[18] = biological target: T7, A.9004SS V1V2 Tags; assay: ELISA, OD405 at 10 ug/ml mAb
T7 Env construct: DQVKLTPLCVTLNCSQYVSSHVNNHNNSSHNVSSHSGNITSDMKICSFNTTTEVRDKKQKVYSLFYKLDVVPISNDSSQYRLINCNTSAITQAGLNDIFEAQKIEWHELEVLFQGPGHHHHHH

[19] = biological target: B.63521 gp140C; assay: ELISA, OD405 at 10 ug/ml mAb
[20] = biological target: T8, B.Case A2 V1/V2 Tags; assay: ELISA, OD405 at 10 ug/ml mAb
T8 Env construct: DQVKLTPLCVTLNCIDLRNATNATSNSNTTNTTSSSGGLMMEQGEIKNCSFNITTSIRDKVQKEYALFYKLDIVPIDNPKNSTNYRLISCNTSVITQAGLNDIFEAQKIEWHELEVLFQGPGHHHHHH

[21] = biological target: B.Case A2 V1/V2 tags; assay: ELISA, OD405 at 10 ug/ml
[22] = biological target: B.63521_V1/V2 tags; assay: ELISA, OD405 at 10 ug/ml
[23] = biological target: T9, A.9004SS V1/V2 tags; assay: ELISA, OD405 at 10 ug/ml
T9 V1V2 tags construct: T7 Env construct

[24] = biological target: D.9009SA V1/V2 tags; assay: ELISA, OD405 at 10 ug/ml
[25] = biological target: A.Q23 V1V2 tags (HIV-1); assay: ELISA; remark: listed apart in the source

B1: PG9 (antibody, V domains shown)
VH: QRLVESGGGVVQPGSSLRLSCAASGFDFSRQGMHWVRQAPGQGLEWVAFIKYDGSEKYHADSVWGRLSISRDNSKDTLYLQMNSLRVEDTATYFCVREAGGPDYRNGYNYYDFYDGYYNYHYMDVWGKGTTVTVSS
VL: QSALTQPASVSGSPGQSITISCNGTSNDVGGYESVSWYQQHPGKAPKVVIYDVSKRPSGVSNRFSGSKSGNTASLTISGLQAEDEGDYYCKSLTSTRRRVFGTGTKLTVL
notes: also called mAb PG9; bnAb PG9
[1]
  IC50: 100 to 1000 nM
[2]
  IC50: 10 to 100 nM
[3]
  Kd: 4.82 µM
[4]
  Kd: 318 nM
[5]
  IC50: 100 to 1000 nM
[6]
  IC50: 10 to 100 nM
[7]
  EC50: 0.7 nM
[8]
  binding result: no binding (tested: 100 ug/ml)
[9]
  EC50: 14.9 nM
[10]
  EC50: 0.7 nM
[11]
  binding result: no binding (tested: 10 ug/ml)
[12]
  binding result: no binding (tested: 10 ug/ml)
[13]
  EC50: 149 nM
[14]
  EC50: 64 nM
[15]
  EC50: 0.23 nM
[16]
  binding result: binds
[17]
  binding result: binds
[18]
  binding result: binds
[19]
  binding result: binds
[20]
  binding result: binds
[21]
  binding result: binds
[22]
  binding result: binds
[23]
  binding result: binds
[24]
  binding result: no binding (tested: 10 ug/ml)
[25]
  EC50: 14.9 nM

— patent publication US9988424 (DUKE UNIVERSITY, dated 2018)
